According to article PMC3812353:
Where a chain is given by its changes, count along the chain named.

B1: DNA(+T) (dsDNA)
DNA 1: ATGTGAATCAGTATGGTATATATCTGCTGAAGGAAAT
DNA 2: ATTTCCTTCAGCAGATATTACCATACTGATTCACAT
B2: DNA(+T)TAMRA (dsDNA)
DNA 1: B1 DNA 1
DNA 2: B1 DNA 2
modifications: 3' amino linker

Assays:
[1] = molecular target: T1, MutS-IAANS (MutS-C42A/M88C) (Thermus aquaticus (printed as T. …, UniProt Q56215 1-811, C42A;M88C)); assay: stopped-flow IAANS fluorescence
T1 sequence: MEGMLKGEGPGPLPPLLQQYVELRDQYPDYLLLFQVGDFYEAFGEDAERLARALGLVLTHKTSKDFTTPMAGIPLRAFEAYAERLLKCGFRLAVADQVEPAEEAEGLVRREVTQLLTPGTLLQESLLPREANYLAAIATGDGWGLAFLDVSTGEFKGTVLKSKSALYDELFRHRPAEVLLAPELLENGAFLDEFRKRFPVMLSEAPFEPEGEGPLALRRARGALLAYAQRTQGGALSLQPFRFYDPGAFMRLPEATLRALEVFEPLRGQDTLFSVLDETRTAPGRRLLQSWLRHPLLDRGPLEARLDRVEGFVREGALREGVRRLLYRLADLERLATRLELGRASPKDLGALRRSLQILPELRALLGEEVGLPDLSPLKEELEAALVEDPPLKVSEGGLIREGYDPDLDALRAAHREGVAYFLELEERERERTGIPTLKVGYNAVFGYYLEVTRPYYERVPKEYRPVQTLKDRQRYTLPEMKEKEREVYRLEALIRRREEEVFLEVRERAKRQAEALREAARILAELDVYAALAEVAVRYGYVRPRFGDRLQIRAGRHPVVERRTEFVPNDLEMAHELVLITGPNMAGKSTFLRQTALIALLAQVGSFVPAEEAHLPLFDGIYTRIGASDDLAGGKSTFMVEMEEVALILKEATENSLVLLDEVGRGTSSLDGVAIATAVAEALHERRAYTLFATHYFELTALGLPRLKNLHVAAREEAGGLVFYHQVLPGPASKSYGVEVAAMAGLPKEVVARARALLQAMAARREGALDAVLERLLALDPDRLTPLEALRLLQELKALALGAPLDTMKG

MutS-F39A-IAANS = molecular target: T2, MutS-F39A-IAANS (Thermus aquaticus (printed as T. …, UniProt Q56215 1-811, F39A;C42A;M88C)); assay: IAANS fluorescence quenching, equilibrium and stopped-flow
T2 sequence: T1 sequence with F39A

[2] = molecular target: T1, MutS-IAANS (MutS-C42A/M88C); assay: IAANS fluorescence quenching, equilibrium
MutS (wild type) [3] = molecular target: T3, MutS (wild type) (Thermus aquaticus (printed as T. …, UniProt Q56215 1-811)); assay: stopped-flow fluorescence anisotropy
T3 sequence: T1 sequence with A42C, C88M

MutS (wild type) [4] = molecular target: T3, MutS (wild type); assay: fluorescence anisotropy, equilibrium
MutS-F39A = molecular target: T4, MutS-F39A (Thermus aquaticus (printed as T. …, UniProt Q56215 1-811, F39A)); assay: fluorescence anisotropy, equilibrium
T4 sequence: T1 sequence with F39A, A42C, C88M

Binder | apparent K (half saturation) [1] | binding result (MutS-F39A-IAANS) | Kd [2] | apparent K (half saturation) (MutS (wild type) [3]) | Kd (MutS (wild type) [4]) | binding result (MutS-F39A)
B1 | 2300 ± 700 nM | no binding | 22 ± 4 nM |  |  | 
B2 |  |  |  | 5 ± 2 µM | 13 ± 2 nM | no binding
